Measured values taken from PMC6589724, “A geminivirus betasatellite encoded βC1 protein interacts with PsbP and subverts PsbP‐mediated antiviral defence in plants”.

Target: T1, GST-βC1 (Radish leaf curl betasatellite (RaLCB), UniProt A9XCM1 1-118)
T1 sequence: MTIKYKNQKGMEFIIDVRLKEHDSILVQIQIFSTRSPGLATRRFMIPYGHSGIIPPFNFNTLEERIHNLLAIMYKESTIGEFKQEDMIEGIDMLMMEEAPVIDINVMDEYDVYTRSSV
Assay: EMSA; 20 mM Tris-HCl pH 8.0, 2 mM DTT, 5 mM MgCl2, 12% glycerol, 25 mM KCl, 2 mM ATP, 10 nM probe, 15 min, room temperature; 3.7% native PAGE
Settings: protein: recombinant; tags: N-terminal GST (pGEX-6p-2); label: 5'-32P; single strand

ACGCTACGCAGCAGCCTTAGCTAC (ssDNA) [SCR probe (1303-1326)]: binds.
